Values of other authors as cited in patent US20250302913A1, “LACRIPEP PROMOTES NEUROREGENERATION AND MAINTAINS EPITHELIAL PROGENITOR CELL IDENTITY” (The Regents of The University of California, priority 2022, published 2025).

B1: Lacritin: endogenous glycoprotein initially identified in tears (protein, listed as Homo sapiens)
chain: MKFTTLLFLAAVAGALVYAEDASSDSTGADPAQEAGTSKPNEEISGPAEPASPPETTTTAQETSAAAVQGTAKVTSSRQELNPLKSIVEKSILLTEQALAKAGKGMHGGVPGGKQFIENGSEFAQKLLKKFSLLKPWA
modifications: Description of sequence: Lacritin
notes: endogenous glycoprotein initially identified in tears

Legend:
rabbit corneas = conditions: after refractive surgery; cited from earlier work
human patients = conditions: controlled clinical studies; cited from earlier work
syndecan-1 (SDC1) = biological target: T1, syndecan-1 (SDC1) (Homo sapiens, UniProt P18827); conditions: cited from earlier work
T1 sequence (P18827 23-310): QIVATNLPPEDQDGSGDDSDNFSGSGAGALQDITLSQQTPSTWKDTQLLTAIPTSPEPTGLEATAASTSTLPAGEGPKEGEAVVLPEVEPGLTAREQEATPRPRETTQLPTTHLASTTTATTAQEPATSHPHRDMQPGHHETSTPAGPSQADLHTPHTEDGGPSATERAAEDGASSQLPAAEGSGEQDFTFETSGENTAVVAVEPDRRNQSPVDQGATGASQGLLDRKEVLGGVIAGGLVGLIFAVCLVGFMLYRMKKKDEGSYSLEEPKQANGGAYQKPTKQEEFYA

healthy rabbit model = conditions: cited from earlier work
corneal epithelial cell = conditions: in vitro; cited from earlier work

| Molecule | reinnervation of corneas (rabbit corneas) | corneal sensitivity or visual acuity versus vehicle (artificial tears) (human patients) | binding and activation of syndecan-1 (syndecan-1 (SDC1)) | basal tearing (healthy rabbit model) | corneal epithelial cell proliferation (corneal epithelial cell) |
| --- | --- | --- | --- | --- | --- |
| cenegermin: recombinant nerve growth factor | stimulated the reinnervation of rabbit corneas | failed to show significant benefit over vehicle |  |  |  |
| B1 |  |  | bind and activate | promote basal tearing | promote corneal epithelial cell proliferation |
